This note sets out measurements from US20230279121A1.

A word on the Kd: it is the free concentration of one partner at which half of the binding sites on the other are occupied at equilibrium, for simple one-to-one binding. A word on the koff: it is the first-order rate constant of dissociation. The term kon denotes the second-order rate constant of association.

One test addresses human EGFR (human) (UniProt P00533). Nature of the test: SPR. (In general: SPR reads the build-up and loss of mass on a sensor chip optically.)
Test [1] addresses Rhesus macaque EGFR (Rhesus macaque) (UniProt P55245). Nature of the test: SPR.
In test [2] the target is recombinant human EGFR-His (human) (UniProt P00533). Nature of the test: SPR, Biacore 8K, 37 C; protein captured on anti-hFc IgG chip, EGFR-His injected; N = 4.

With PANI-H_S62R-L_F87Y-L_D92R (scFv), in the test with human EGFR (human), the Kd is 3.38 nM, the koff amounted to 0.00099 s⁻¹ and the kon was 293000 M⁻¹ s⁻¹. In test [1], this molecule yielded an equilibrium dissociation constant (Kd) of 5.36 nM, a koff of 0.00112 s⁻¹ and a kon of 209000 M⁻¹ s⁻¹.

B1: EGFR-Protein-4 (bispecific antibody, part only; not given: unrelated Fab, Fc and junctions, not shown: another chain or arm of the molecule; a dimerising Fc or GST)
scFv: DIQMTQSPSSLSASVGDRVTITCQASQDISNYLNWYQQKPGKAPKLLIYDASNLETGVPSRFSGSGSGTDFTFTISSLQPEDIATYYCQHFRHLPLAFGCGTKVEIKGGGGSGGGGSGGGGSGGGGSQVQLQESGPGLVKPSETLSLTCTVSGGSVSSGDYYWTWIRQSPGKCLEWIGHIYYSGNTNYNPSLKSRLTISIDTSKTQFSLKLSSVTAADTAIYYCVRDRVTGAFDIWGQGTMVTVSS
Regarding B1, in test [2], the dissociation constant (Kd) was 2.36 nM, the koff stood at 0.000745 s⁻¹ and the kon turned out to be 316000 M⁻¹ s⁻¹.
